# According to the supplement of paper PMC10724198:
# ± gives the standard deviation of the averaged measurements.
# System: Saccharomyces cerevisiae
# Experiment: protein stability index of tFT-peptide fusion (C-terminal peptide) (PSI (0-1 scale)); higher = more stable (slower turnover)
# Details: genetic background: wild type; temperature: 30 C
# Protocol: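 Multiplexed protein stability (MPS) profiling in S. cerevisiae. Random 12-aa peptides (tFT-X12 library) are fused to the C-terminus of a sfGFP-mCherry tandem fluorescent timer, after mCherry and a GGGS linker. Cells are FACS-sorted into 8 mCherry/sfGFP bins and deep-sequenced. The protein stability index (PSI) is the read-weighted bin average, scaled from 0 (unstable) to 1 (stable). Only peptides with >10 reads are reported; cells were grown at 30 °C in SC-His with glucose.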
# 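Also: PSI is a weighted mean of sequencing reads over stability bins, variants kept only with over 10 reads, mCherry proximal and sfGFP distal, peptide attached via GGGS linker.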
row,Sequence,protein stability index
1,ITRSEEAKWLCA,0.685 ± 0.045
2,AREGSRGVDVGV,0.629 ± 0.01
3,VEESNQILERQS,0.671 ± 0.0093
4,KPVGLPGRIRLG,0.751 ± 0.02
5,KKEKKIRKKTVT,0.732 ± 0.028
6,CCFVLDLSASLL,0.625 ± 0.076
7,CPSHPDCFPDRL,0.6792 ± 0.0039
8,LGVLGGGRRFGV,0.715 ± 0.019
9,FLRKHVLRLRPP,0.594 ± 0.03
10,PPLCPPLPFLHP,0.885 ± 0.11
11,ESIGCINIRMRG,0.694 ± 0.013
12,ACPQPSPSPSQY,0.672 ± 0.048
13,VRRETGPPRAPT,0.6717 ± 0.0019
14,LSPSSPHLPFPL,0.702 ± 0.038
15,VPEMFSSGIKGG,0.653 ± 0.072
16,GGSARSIPVHVV,0.584 ± 0.025
17,PPPVAPRSPAHL,0.713 ± 0.074
18,AGSTGGGRGRDW,0.76 ± 0.14
19,STAPRYNGRKYS,0.702 ± 0.069
20,GAGEGVGSVVVR,0.632 ± 0.052
21,FGPDFCVRSHLS,0.719 ± 0.03

row,Sequence,protein stability index
1,VGGFCSWVVAWF,0.717 ± 0.1
2,PVFLQRVIPRSR,0.678 ± 0.096
3,VSRKEQYPEAQE,0.625 ± 0.033
4,PPPPPPLHATPL,0.6969 ± 0.0065
5,VGVFDGAVFSWC,0.726 ± 0.12
6,AGAGVQAYGRGR,0.681 ± 0.015
7,APPPRPPPPPQL,0.67 ± 0.031
8,FFFLPILKSPSR,0.714 ± 0.058
9,NYSINQKNRKKN,0.737 ± 0.013
10,ARGPCRGSGSFG,0.631 ± 0.044
11,CFCVRTGCSVGV,0.663 ± 0.016
12,SPAPPVPLHPPH,0.714 ± 0.089
13,PSLARWLTLGYM,0.63 ± 0.013
14,AVYSACSRVGWV,0.6937 ± 0.0061
15,KTKKENGRGEKN,0.697 ± 0.04
16,PPSPDATPLSHI,0.678 ± 0.035
17,ELNENKKKKEHL,0.714 ± 0.12
18,GAAARSGSRKEL,0.631 ± 0.029
19,KQLPVLSAEVLS,0.648 ± 0.035
20,SPPLRPLSDLTP,0.692 ± 0.085
21,AGVRGWGIAVTP,0.64 ± 0.046

row,Sequence,protein stability index
1,SLSIWSTSPPAA,0.691 ± 0.0086
2,LPHSNWAGRVIE,0.703 ± 0.025
3,LVVEYFLCGSIS,0.532 ± 0.035
4,DRPPPPPRSSPL,0.753 ± 0.046
5,KKKKRKNNITKK,0.74 ± 0.15
6,AGAGGRAMSDTS,0.693 ± 0.0087
7,HAPAPPLPTIYP,0.668 ± 0.094
8,LLRSSASISLKK,0.738 ± 0.059
9,VTLFFLFSLSPP,0.56 ± 0.013
10,LPLPVPSLPSAP,0.728 ± 0.019
11,FLSPSLLSLSSP,0.681 ± 0.025
12,VPSCWVSFPPSP,0.732 ± 0.04
13,SPPPFPPSPSPP,0.715 ± 0.039
14,LRGLIDVKSSLK,0.758 ± 0.052
15,VGGGGRARRRGS,0.701 ± 0.013
16,VHHFCSPPLPPP,0.732 ± 0.0095
17,PQSSGVSPIPPP,0.77 ± 0.078
18,KKNLKTKKRQNI,0.66 ± 0.01
19,GLSDLTFFKRLF,0.659 ± 0.036
20,RLSGDRCSHDAG,0.6768 ± 0.0037
21,VRNPLRSFSGDA,0.64 ± 0.049

row,Sequence,protein stability index
1,SPRSLLTPHPHM,0.686 ± 0.041
2,WVWKRLTGQDGA,0.668 ± 0.06
3,TLLVLGLSWGLP,0.618 ± 0.044
4,EISKVRGAVDRK,0.689 ± 0.033
5,TRDLWWNVRVRA,0.543 ± 0.015
6,FLCNSRSICGDG,0.6774 ± 0.0033
7,PPPHPHPFSLAL,0.691 ± 0.017
8,PSVPPRVCSFSI,0.735 ± 0.08
9,RASGNHVNQVDC,0.719 ± 0.036
10,TLLSPRRHPFAR,0.674 ± 0.022
11,TPFLLHPPSPDL,0.607 ± 0.051
12,YFGGRGARGRER,0.676 ± 0.027
13,GFVLSFADLLGV,0.653 ± 0.054
14,GSAVMLGVSVRV,0.581 ± 0.043
15,MNQELRNCKGNG,0.6259 ± 0.0034
16,GLSSNVTSSTLS,0.685 ± 0.015
17,PFLPSPPPPVPI,0.712 ± 0.045
18,MLFLGPRLVVPA,0.565 ± 0.0097
